Legend:
[1] = test system: hMpp8 chromodomain mutant, Glu101 mutated to proline; assay: Histone H3K27 peptide pulldown, hMPP8 chromodomain mutant with Glu101 mutated to proline; format: binding, human; details: Fig. S1B
From the text: (§1) It is noteworthy that the sequence motif of H3K27 is similar to H3K9 tail (KAARK^27S versus QTARK^9S). However, methylated histone H3K27 cannot interact with hMPP8 chromodomain. To explain why hMPP8 specifically recognizes methylated H3K9, we built a mutant model that hMPP8 binds to methylated H3K27. We mutated residues Gln5 and Thr6 of the QTARK^9S motif to KA to generate a motif of KAARK^9S, which shared the same amino sequence around the K27 site in histone H3. […] To further validate the hypothesis, hMpp8 chromodomain mutants were designed to rescue the binding ability to H3K27me3. Based on our structures, residues Lys100, Glu101 and Val102 were mutated to proline, respectively, to generate enough space where the side chain of Lys5 can insert.
(§2) Supplementary file pone.0025104.s001.tif: Figure S1 hMPP8 specifically recognizes methylated H3K9 rather than H3K27. (A) A mutant structure model for hMPP8 binds to KAARK(me3)S histone motif. Gln5 and Thr6 of the QTARK^9S motif were mutated to KA in this model. (B) Histone H3K27 peptide pulldowns with proteins of wild type hMpp8 chromodomain and indicated mutants, respectively. […] Molecular mass was measured by size exclusion. (F) Binding affinity of hMPP8 chromodomain to H3K4me3 (left panel, measured by ITC method) and H3K27me3 peptide (right panel, measured by SPR method). […]

[2] = test system: hMpp8 chromodomain mutant, Lys100 mutated to proline; assay: Histone H3K27 peptide pulldown, hMPP8 chromodomain mutant with Lys100 mutated to proline; format: binding, human; details: Fig. S1B
From the text: as §1, §2

hMPP8 chromodomain = biological target: T1, hMPP8 chromodomain (Homo sapiens, UniProt Q99549); assay: Surface plasmon resonance (SPR) binding of histone peptides to hMPP8 chromodomain; details: BIAcore3000, 14°C, synthetic peptide residues 19 to 33, 150 mM NaCl, 20 mM Tris, pH 8.0, 1 mM DTT, Fig. S1F right panel
T1 construct: The chromodomain of human MPP8 (residue 56–116) was inserted into a pET28a-MHL vector; His-tag (cleaved yes); made in house; host or cells: E. coli BL21 (DE3) Codon plus RIL
T1 sequence (Q99549 56-116): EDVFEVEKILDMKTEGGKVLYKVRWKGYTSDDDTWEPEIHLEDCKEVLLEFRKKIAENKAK
Procedure: The binding affinity of hMPP8 chromodomain and histone peptides were determined at 14°C using BIAcore3000 instruments. The biotinylated peptides were immobilized on a streptavidin-coated biosensor chip (SA-Chip). All experiments were carried out in the continuous-follow buffer (150 mM NaCl, 20 mM Tris, pH 8.0, 1 mM DTT). The injected protein sample was flowed for 3 min over the peptide coated SA-Chips at a follow rate of 30 ml/min and the change of response unit (RU) was recorded. Protein dissociation was monitored for 3 min by following the continuous-follow buffer at a follow rate of 30 ml/min over the SA-Chips. The KD was determined by global nonlinear regression fitting of the association and dissociation curves according to the Langmuir binding isotherm model.

[3] = biological target: human MPP8 (M-phase phosphoprotein 8) chromodomain (human) (UniProt Q99549); assay: SEC; size exclusion of hMPP8 chromodomain in the presence or in the absence of H3K9me3 peptide
[4] = biological target: human MPP8 (M-phase phosphoprotein 8) chromodomain (human) (UniProt Q99549); assay: SEC; gel filtration of hMPP8 chromodomain; column buffer 20 mM Tris (pH 8.0), 400 mM NaCl
[5] = Size exclusion chromatography, oligomerization state in solution; format: physicochemical; details: 20 mM Tris (pH 8.0), 400 mM NaCl, Fig. 1D
From the text: Figure 1 Overall structure of hMPP8 chromodomain. (A) Sequence alignment of chromodomains of human MPP8, Drosophila HP1 and Drosophila Polycomb. Secondary structural elements (arrows for β strands and rectangles for α helices) are indicated, η represent 3_10 helix. Methylated H3K9 binding residues are marked by stars. Residues involved in dimerization of human Mpp8 and Drosophila Polycomb are marked by diamonds and triangles, respectively. The alignment was created with Espript (http://espript.ibcp.fr/Espript/Espript). (B) Cartoon representation of the crystal structure of hMPP8 chromodomain. The two subunits of the homodimer are colored in cyan and green, respectively, and the secondary structure regions in both proteins are marked. (C) Interactions between the two subunits of the hMPP8 chromodomain homodimer. The dimer interface is formed by strand β2 through an antiparallel arrangement. (D) Gel filtration of hMPP8 chromodomain (left panel). The column buffer was 20 mM Tris (pH 8.0), 400 mM NaCl. The molecular weight of hMPP8 chromodomain monomer was measured using tricine-SDS-PAGE (right panel). TEXT PRINTED IN THE PICTURE: (D) no label printed: 100.09 ml (13.6 kDa)
To determine the oligomerization state of hMPP8 chromodomain in solution, size exclusion experiment was performed. […] The molecular weight of hMPP8 chromodomain monomer is about 8.0 kD. […]

H3K27me3: synthetic H3K27me3 (residues 19 to 33) peptide (QLATKAARKSAPATG; K27 trimethylation; UniProt P68431 20-34, looked up, fragment)
binding in peptide pulldown [1]: able to bind H3K27me3 peptide weakly | binding in peptide pulldown [2]: able to bind H3K27me3 peptide weakly | binding (SPR) (hMPP8 chromodomain): does not exhibit detectable binding

human MPP8 (M-phase phosphoprotein 8) chromodomain (from UniProt Q99549 56-116) (domain or fragment)
stoichiometry N [3]: 2 | stoichiometry N [4]: 2

B1: hMPP8 chromodomain: recombinant chromodomain of human MPP8 (residue 56–116), expressed in BL21 (DE3) Codon plus RIL (protein, UniProt Q99549 56-116, looked up, fragment)
chain: EDVFEVEKILDMKTEGGKVLYKVRWKGYTSDDDTWEPEIHLEDCKEVLLEFRKKIAENKAK
modifications: chromodomain
notes: recombinant chromodomain of human MPP8 (residue 56–116), expressed in BL21 (DE3) Codon plus RIL
oligomerization state in solution ([5]; free form): homodimer | apparent molecular weight in solution ([5]; monomer about 8.0 kD): 13.6 kD

Source: PMC3192050, “Structural Basis for Specific Binding of Human MPP8 Chromodomain to Histone H3 Methylated at Lysine 9” (PLoS ONE, 2011)
